Results: patent publication US20210093714A1, “Combination and method for inhibiting the cancer cells” (NATIONAL TAIWAN UNIVERSITY, priority 2013, published 2021)

System: CL1-5 lung adenocarcinoma cell lines
Experiment: MTT Assay, cell survival of CL1-5, rCCN2 and cetuximab
Assay type: cell-based, human
Settings: attached CL1-5; rCCN2 alone 0 to 200 ng/mL; FIG. 8F

B1: Connective tissue growth factor (CCN2), wild-type full length (ligand, human, UniProt P29279 27-349, looked up)
chain: QNCSGPCRCPDEPAPRCPAGVSLVLDGCGCCRVCAKQLGELCTERDPCDPHKGLFCHFGSPANRKIGVCTAKDGAPCIFGGTVYRSGESFQSSCKYQCTCLDGAVGCMPLCSMDVRLPSPDCPFPRRVKLPGKCCEEWVCDEPKDQTVVGPALAAYRLEDTFGPDPTMIRANCLVQTTEWSACSKTCGMGISTRVTNDNASCRLEKQSRLCMVRPCEADLEENIKKGKKCIRTPKISKPIKFELSGCTSMKTYRAKFCGVCTDGRCCTPHRTTTLPVEFKCPDGEVMKKNMMFIKTCACHYNCPGDNDIFESLYYRKMYGDMA
notes: also called Recombinant CCN2; exogenous CCN2
- cell survival: not significantly reduced
